In patent US20190016825A1 (JIANGSU HENGRUI MEDICINE, published 2019):

B1: Ch-001 (antibody, V domains shown)
VH: QVHLQQSGAELAKPGASVKLSCKASGYTFNDYWMHWVKERPGQGLEWIGYINPSSGFTKYHQNFKDKATLTADKSSSTAYMQLSSLTYDDSAVYYCARQYDYDEDWYFDVWGTGTTVTVSS
VL: DIVMSQSPSSLAVSAGEKVTMSCKSSQSLLNSRTRKNFLAWYQQKPGQSPKLLIYWASTRESGVPDRFTGRGSGTDFTLTISSVQAEDLAVYYCKQSFNLFTFGSGTKLEIK
notes: also called chimeric antibody
B2: h001-4-WT (antibody)
heavy: not shown
light: DIVMSQSPSSLSASVGDRVTITCKSSQSLLNSRTRKNFLAWYQQKPGKSPKLLIYWASTRESGVPDRFSGSGSGTDFTLTISSLQPEDFATYYCKQSFNLFTFGQGTKLEIKRTVAAPSVFIFPPSDEQLKSGTASVVCLLNNFYPREAKVQWKVDNALQSGNSQESVTEQDSKDSTYSLSSTLTLSKADYEKHKVYACEVTHQGLSSPVTKSFNRGEC
notes: both labels are treated as one molecule; also called H001-4 IgG1 format; h001_VH.1 + h001_VL.1C
B3: h001-4-YTE (antibody, human IgG1, kappa)
heavy: QVQLVQSGAEVKKPGASVKVSCKASGYTFTDYWMHWVRQAPGQGLEWMGYINPSSGFTKYHQNFKDRVTMTRDTSISTAYMELSRLRSDDTAVYYCARQYDYDEDWYFDVWGQGTTVTVSSASTKGPSVFPLAPSSKSTSGGTAALGCLVKDYFPEPVTVSWNSGALTSGVHTFPAVLQSSGLYSLSSVVTVPSSSLGTQTYICNVNHKPSNTKVDKKVEPKSCDKTHTCPPCPAPELLGGPSVFLFPPKPKDTLYITREPEVTCVVVDVSHEDPEVKFNWYVDGVEVHNAKTKPREEQYNSTYRVVSVLTVLHQDWLNGKEYKCKVSNKALPAPIEKTISKAKGQPREPQVYTLPPSRDELTKNQVSLTCLVKGFYPSDIAVEWESNGQPENNYKTTPPVLDSDGSFFLYSKLTVDKSRWQQGNVFSCSVMHEALHNHYTQKSLSLSPGK
light: B2 light
notes: human kappa light chain; also called h001-4-IgG1-YTE
B4: h001-10 (antibody, human IgG1, V domains shown)
VH: QVQLVQSGAEVKKPGASVKVSCKASGYTFTDYWMHWVRQAPGQGLEWMGYINPSSGFTKYHQNFKDRVTMTRDTSISTAYMELSRLTSDDTAVYYCARQYDYDEDWYFDVWGQGTTVTVSS
VL: DIQMTQSPSSLSASVGDRVTITCKSSQSLLNSRTRKNFLAWYQQKPGKAPKLLIYWASTRESGVPDRFSGSGSGTDFTLTISSLQPEDFATYYCKQSFNLFTFGQGTKLEIK
notes: Variable regions only; also called h001_VH.1B + h001_VL.1A

Legend:
[1] = target: T1, PCSK9-D374Y-BP15-His6 (human, UniProt Q8NBP7 31-692, biotin on the BP15 biotin receiving peptide); assay: ELISA, bio-PCSK9-Y captured on streptavidin plate
T1 construct: also called PCSK9-Y; mutant PCSK9
Protocol: The binding ability of anti-PCSK9 antibodies of the present invention to PCSK9-Y was detected by measuring the amount of antibodies binding to PCSK9-Y (mutant PCSK9, SEQ ID NO: 6) fixed on the ELISA plate.
Streptavidin (sigma, CAT#54762) was diluted to 2 μg/ml with PBS and coated into 96-well ELISA plate at 4° C. overnight. The plate was washed and then blocked with Tris buffer (including 0.9 mM CaCl₂, 0.05% Tween 20 and 5% skim milk) at 37° C. for 2 hours. Then the plate was washed again and 100 μl/well of the biotin-labeled PCSK9-Y, produced in-house, (bio-PCSK9-Y, diluted with Tris buffer containing 0.9 mM CaCl₂, 0.05% Tween 20 and 1% skim milk) was added and incubated at 37° C. for 1 hour. After the wash step, different concentrations of diluted PCSK9 antibody samples were added to the plate and incubated at 37° C. for 1 hour. Then the plate was washed again and HRP-goat-anti-human (H+L) antibody (Jackson ImmunoResearch, CAT#109-035-088) was added and incubated at 37° C. for 1 hour. Then the plate was washed again and tetramethylbenzidine solution was added for development. Finally, the stop solution was added and the OD450 value was measured on the Microplate reader, and then EC50 was calculated.
The results of ELISA test for the binding ability of chimeric antibodies and back-mutated antibodies of the present invention to mutant PCSK9 are shown in table 6.

[2] = target: T2, PCSK9-BP15-His6 (human, UniProt Q8NBP7 31-692, biotin on the BP15 biotin receiving peptide); assay: ELISA, bio-WT-PCSK9 captured on streptavidin plate
T2 construct: It holds a signal peptide (underlined in print); also called WT PCSK9; bio-WT-PCSK9
Protocol: The binding ability of anti-PCSK9 antibodies of the present invention to PCSK9 was detected by measuring the amount of antibodies binding to wild-type PCSK9 protein (WT PCSK9, SEQ ID NO: 5) fixed on the ELISA plate.
Streptavidin (sigma, CAT#S4762) was diluted to 2 μg/ml with PBS and coated into 96-well ELISA plate, at 4° C. overnight. The plate was washed and then blocked with Tris buffer (including 0.9 mM CaCl2, 0.05% Tween 20 and 5% skim milk) at 37° C. for 2 hours. Then the plate was washed again and 100 μl/well of the biotin-labeled PCSK9, produced in-house, (bio-WT-PCSK9, diluted with Tris buffer containing 0.9 mM CaCl2, 0.05% Tween 20 and 1% skim milk), was added and incubated at 37° C. for 1 hour. After the wash step, different concentrations of diluted PCSK9 antibody samples was added to the plate and incubated at 37° C. for 1 hour. Then the plate was washed again and HRP-goat-anti-human (H+L) antibody (Jackson ImmunoResearch, CAT#109-035-088) was added and incubated at 37° C. for 1 hour. Then the plate was washed again and tetramethylbenzidine solution was added for development. Finally, the stop solution was added and the OD450 value was measured on the Microplate reader, and then EC50 was calculated.

[3] = target: T1, PCSK9-D374Y-BP15-His6; assay: blocking ELISA, LDLR-FC (SEQ ID NO: 8) coated, bio-PCSK9-Y plus antibody
Protocol: The blocking abilities of anti-PCSK9 antibodies to the binding of LDLR-FC (SEQ ID NO: 8) to PCSK9-Y (mutant PCSK9, SEQ ID NO: 6) were detected by measuring the amount of PCSK9-Y binding to LDLR in the presence of the antibodies.
LDLR-FC was diluted to 2 μg/ml with phosphate buffer and coated in the 96-well ELISA plate (Costar, CAT#3590), then incubated at 4° C. overnight. The plate was washed and then blocked with Tris buffer (including 0.9 mM CaCl₂, 0.05% Tween 20 and 5% skim milk) at 37° C. for 2 hours. Then the plate was washed again and 100 μl/well of the mixture of biotin-labeled PCSK9-Y (bio-PCSK9-Y, diluted to final concentration of […] with Tris buffer containing 0.9 mM CaCl₂, 0.05% Tween 20 and 1% skim milk) and antibody samples (diluted with Tris buffer containing 0.9 mM CaCl₂, 0.05% Tween 20 and 1% skim milk) were added and incubated at 37° C. for 1 hour. Then the plate was washed again and horseradish peroxidase-streptavidin (sigma, CAT#S2438) was added and incubated at 37° C. for 1 hour. Then the plate was washed and tetramethylbenzidine solution was added for development. Finally, the stop solution was added and the OD450 value was measured on the Microplate reader, then IC50 was calculated.
The results of blocking test for the blocking effects of the chimeric antibodies and back-mutated antibodies of the present invention on the binding of LDLR-FC/PCSK9-Y are shown in table 7.

[4] = target: T2, PCSK9-BP15-His6; assay: blocking ELISA, LDLR-FC (SEQ ID NO: 8) coated, bio-WT-PCSK9 plus antibody
Protocol: The blocking abilities of PCSK9 antibodies of the present invention to the binding of LDLR-FC (produced in-house, sequence is shown in SEQ ID NO: 8) to PCSK9 (SEQ ID NO: 5) were detected by measuring the amount of PCSK9 binding to LDLR in the presence of the antibodies.
LDLR-FC was diluted to 5 μg/ml with phosphate buffer and coated in the 96-well ELISA plate, then incubated at 4° C. overnight. The plate was washed and then blocked with Tris buffer (including 0.9 mM CaCl₂, 0.05% Tween 20 and 5% skim milk) at 37° C. for 2 hours. Then the plate was washed again and 100 μl/well of the mixture of biotin-labeled PCSK9 (bio-WT-PCSK9, diluted to the final concentration of 2 μg/ml with Tris buffer containing 0.9 mM CaCl₂, 0.05% Tween 20 and 1% skim milk) and antibody samples (diluted with Tris buffer containing 0.9 mM CaCl₂, 0.05% Tween 20 and 1% skim milk) were added and incubated at 37° C. for 1 hour. Then the plate was washed again and horseradish peroxidase-streptavidin (Sigma, CAT#52438) was added and incubated at 37° C. for 1 hour. Then the plate was washed and tetramethylbenzidine solution was added for development. Finally, the stop solution was added and the OD450 was measured on the Microplate reader, then IC50 was calculated.

[5] = target: T3, PCSK9-His6 (human, UniProt Q8NBP7 31-692, limits assumed); assay: BIAcore, antibody captured by human Fab capture molecule on CM5 chip, PCSK9-His6 in flow
T3 construct: also called human PCSK9 with His tag; huPCSK9
Description: According to the method described in the Human Fab Capture Kit (Cat. #28-9583-25, GE), the human Fab capture molecule was covalently linked to the CM5 biochip (Cat. # BR-1000-12, GE) so that the antibodies to be tested were affinity captured. Then, human PCSK9 antigen (human PCSK9 with His tag: PCSK9-His6, SEQ ID NO: 1) flowed through the surface of the biochip, and the reaction signal was detected in real time using a Biacore instrument to obtain the association and dissociation curves. Finally, the affinity values were obtained by fitting and are shown at table 9 below. After each cycle of dissociation was finished in the experiment, the biochip was washed and regenerated with regeneration solution in Human Fab Capture kit (GE).

| Binder | EC50 [1] [µg/mL] | EC50 [2] [µg/mL] | IC50 [3] [µg/mL] | IC50 [4] [µg/mL] | Kd [5] [nM] |
| --- | --- | --- | --- | --- | --- |
| B1 | 0.0132 | 0.0084 | 0.392 | 0.836 |  |
| B2 | 0.0179 | 0.012 | 0.53 | 0.76 | 0.288 |
| B3 |  |  |  |  | 0.491 |
| B4 | 0.0209 | 0.0176 | 0.514 | 0.829 |  |
